This passage reports EC50 results from patent US20250242041A1 (Seagen, published 2025).

B1: c2A2 (antibody, V domains shown)
VH: EFQLQQSGPELVKPGASVKISCKASGYSFTDYNVNWVKQSNGKSLEWIGVINPKYGTTRYNQKFKGKATLTVDKPSSTAYMQLNSLTSEDSAVYYCTRGLNAWDYWGQGASVTVSS
VL: DIQMTQSPASLSASVGETVTITCGASENIYGALNWYQRKQGKSPQLLIYGATNLADGMSSRFSGSGSGRQYSFKISSLHPDDVATYYCQNVLTTPYTFGGGTKLEIK
B2: h2A2 HALA (antibody, V domains shown)
VH: QFQLVQSGAEVKKPGASVKVSCKASGYSFTDYNVNWVRQAPGQGLEWMGVINPKYGTTRYNQKFKGRVTMTRDTSTSTVYMELSSLRSEDTAVYYCTRGLNAWDYWGQGTLVTVSS
VL: DIQMTQSPSSLSASVGDRVTITCGASENIYGALNWYQQKPGKAPKLLIYGATNLADGVPSRFSGSGSGTDFTFTISSLQPEDIATYYCQNVLTTPYTFGQGTKLEIKR
B3: h2A2 HDLB (antibody, V domains shown)
VH: B2 VH with M48I, V68A, M70L, R72V, T74K, S75P, V79A
VL: B2 VL with T69R, F71Y
B4: h2A2 HBLB (antibody, V domains shown)
VH: B2 VH with S75P
VL: B2 VL with T69R, F71Y
B5: h2A2 HCLA (antibody, V domains shown)
VH: B2 VH with M48I, V68A, M70L, R72V, T74K, V79A
VL: B2 VL
B6: h2A2 HDLA (antibody, V domains shown)
VH: B2 VH with M48I, V68A, M70L, R72V, T74K, S75P, V79A
VL: B2 VL
B7: h2A2 HBLA (antibody, V domains shown)
VH: B2 VH with S75P
VL: B2 VL
B8: h2A2 HCLB (antibody, V domains shown)
VH: B2 VH with M48I, V68A, M70L, R72V, T74K, V79A
VL: B2 VL with T69R, F71Y
B9: h2A2 HALB (antibody, V domains shown)
VH: B2 VH
VL: B2 VL with T69R, F71Y
B10: h2A2 HALC (antibody, V domains shown)
VH: B2 VH
VL: B2 VL with D56T, T69R, F71Y
B11: h2A2 HALH (antibody, V domains shown)
VH: B2 VH
VL: B2 VL with T69R
B12: h2A2 HCLF (antibody, V domains shown)
VH: B2 VH with M48I, V68A, M70L, R72V, T74K, V79A
VL: B2 VL with G24Q, D56T, F71Y
B13: h2A2 HALF (antibody, V domains shown)
VH: B2 VH
VL: B2 VL with G24Q, D56T, F71Y
B14: h2A2 HCLD (antibody, V domains shown)
VH: B2 VH with M48I, V68A, M70L, R72V, T74K, V79A
VL: B2 VL with F71Y
B15: h2A2 HALG (antibody, V domains shown)
VH: B2 VH
VL: B2 VL with A55E, T69R, F71Y
B16: h2A2 HALD (antibody, V domains shown)
VH: B2 VH
VL: B2 VL with F71Y
B17: h2A2 HCLC (antibody, V domains shown)
VH: B2 VH with M48I, V68A, M70L, R72V, T74K, V79A
VL: B2 VL with D56T, T69R, F71Y
B18: h2A2 HCLH (antibody, V domains shown)
VH: B2 VH with M48I, V68A, M70L, R72V, T74K, V79A
VL: B2 VL with T69R
B19: h2A2 HALE (antibody, V domains shown)
VH: B2 VH
VL: B2 VL with G24Q, T69R, F71Y
B20: h2A2 HCLE (antibody, V domains shown)
VH: B2 VH with M48I, V68A, M70L, R72V, T74K, V79A
VL: B2 VL with G24Q, T69R, F71Y

Changes are numbered by the printed parent chain.

For the first test, the target named is T1, human αvβ6 on 293F:huβ6 cells (human, UniProt P06756 31-1048; P18564 22-788).
T1 chain 1: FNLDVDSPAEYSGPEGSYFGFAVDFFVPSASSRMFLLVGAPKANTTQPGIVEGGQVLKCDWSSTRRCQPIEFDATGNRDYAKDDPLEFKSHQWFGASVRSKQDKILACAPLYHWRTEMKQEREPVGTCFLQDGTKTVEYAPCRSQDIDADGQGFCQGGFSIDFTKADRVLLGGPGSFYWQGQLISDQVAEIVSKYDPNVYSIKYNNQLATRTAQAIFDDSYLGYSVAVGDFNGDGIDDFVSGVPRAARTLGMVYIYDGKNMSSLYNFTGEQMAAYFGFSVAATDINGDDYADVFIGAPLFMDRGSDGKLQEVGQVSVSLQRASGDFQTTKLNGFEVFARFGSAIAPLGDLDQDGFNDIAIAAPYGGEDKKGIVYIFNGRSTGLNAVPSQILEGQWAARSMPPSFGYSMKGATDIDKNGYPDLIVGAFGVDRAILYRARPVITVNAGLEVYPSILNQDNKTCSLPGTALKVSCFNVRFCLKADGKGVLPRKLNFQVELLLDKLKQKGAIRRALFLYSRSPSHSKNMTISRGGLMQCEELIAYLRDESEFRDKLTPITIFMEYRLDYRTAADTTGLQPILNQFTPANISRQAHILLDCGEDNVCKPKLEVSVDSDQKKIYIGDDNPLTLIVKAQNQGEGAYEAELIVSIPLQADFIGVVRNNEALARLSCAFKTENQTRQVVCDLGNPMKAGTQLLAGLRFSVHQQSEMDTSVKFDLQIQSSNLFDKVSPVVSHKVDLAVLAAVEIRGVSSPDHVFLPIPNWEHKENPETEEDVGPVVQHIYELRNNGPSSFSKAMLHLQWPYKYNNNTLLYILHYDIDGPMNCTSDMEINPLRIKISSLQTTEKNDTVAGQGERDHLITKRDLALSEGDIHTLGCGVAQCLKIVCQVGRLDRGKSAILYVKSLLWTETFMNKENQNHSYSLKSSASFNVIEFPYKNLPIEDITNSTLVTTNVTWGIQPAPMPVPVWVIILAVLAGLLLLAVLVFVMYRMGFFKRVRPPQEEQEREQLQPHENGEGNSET
T1 chain 2: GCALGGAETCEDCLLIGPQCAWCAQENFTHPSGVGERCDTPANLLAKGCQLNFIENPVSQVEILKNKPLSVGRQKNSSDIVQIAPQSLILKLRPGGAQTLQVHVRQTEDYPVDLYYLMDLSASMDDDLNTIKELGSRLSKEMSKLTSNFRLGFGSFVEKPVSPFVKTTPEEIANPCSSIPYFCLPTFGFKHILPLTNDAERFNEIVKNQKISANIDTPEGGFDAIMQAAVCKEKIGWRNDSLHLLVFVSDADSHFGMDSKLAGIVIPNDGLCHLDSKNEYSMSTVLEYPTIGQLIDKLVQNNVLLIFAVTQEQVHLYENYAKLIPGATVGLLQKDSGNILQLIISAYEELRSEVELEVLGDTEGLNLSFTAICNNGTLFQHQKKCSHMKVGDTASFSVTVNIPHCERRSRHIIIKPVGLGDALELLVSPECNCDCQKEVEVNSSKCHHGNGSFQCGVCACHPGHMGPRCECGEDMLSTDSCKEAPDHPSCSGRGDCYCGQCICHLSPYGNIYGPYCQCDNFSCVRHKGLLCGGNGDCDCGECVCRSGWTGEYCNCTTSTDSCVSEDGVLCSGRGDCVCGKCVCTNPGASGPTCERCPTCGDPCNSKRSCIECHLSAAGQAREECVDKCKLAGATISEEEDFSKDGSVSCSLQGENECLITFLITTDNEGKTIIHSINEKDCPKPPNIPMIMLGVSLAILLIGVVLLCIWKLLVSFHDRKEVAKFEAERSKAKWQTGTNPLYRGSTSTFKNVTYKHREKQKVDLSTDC
Put plainly: competition binding on 293F cells; 2nM m2A2-AF647 competitor.
Take B1: the concentration giving a half-maximal response (EC50) is 4 nM.

In the case of B2, the response was half-maximal at 74 nM (EC50). In turn, B3 yielded an EC50 of 6 nM. Regarding B4, the concentration giving a half-maximal response (EC50) worked out at 9 nM. Molecule B5 showed an EC50 of 74 nM. For B6, the 50% effective concentration (EC50) is 147 nM. On to B7, for which the EC50 worked out at 85 nM. B8 came in with a concentration for a half-maximal effect (EC50) of 3 nM. Regarding B9, the EC50 is 5 nM.

A further test concerns the target T1, human αvβ6 on 293F:huβ6 cells. The test is described as above. This is another data set of the same source.
Turning to B1, the concentration giving a half-maximal response (EC50) was determined as 3 nM. Molecule B10 had an EC50 of 9 nM.

Turning to B11, the EC50 came out at 46 nM. In turn, B8 returned an EC50 of 3 nM. In turn, B9 yielded an EC50 of 8 nM. Still for that read-out and setting: the value for B12 was 6 nM; that for B13 was 14 nM; that for B14 was 5 nM.

For the molecule B15, a half-maximal effect (EC50) was put at 1 nM.

Take B16: a half-maximal effect (EC50) was put at 12 nM.

For the molecule B17, the EC50 is 3 nM. Still for that read-out and setting: the value for B18 was 30 nM; that for B19 was 5 nM. The molecule B20 came in with an EC50 of 3 nM.

The target is the same in another test. The test is described as above. The source holds these as a separate data set.
For B15, a half-maximal response (EC50) required 1 nM.

Molecule B18 had an EC50 of 46 nM.

With B20, the EC50 worked out at 2 nM.

A word on the EC50: it is the concentration that produces a half-maximal response. A lower EC50 goes with a more potent agent.
